Measurements from patent US20150299263A1 (FACTOR THERAPEUTICS, published 2015).
Where no end group is shown, it is not given here.

B1: VN-peptide 1B (array grid A14) (peptide)
peptide: DELCSYYQSCCTDYTA
modifications: not fully specified (N-terminus); cysteine pairing not given here; also: free end capped by acetylation, immobilised on cellulose membrane (SPOT synthesis)
B2: Non-binding negative control VN-peptide (KTYLFKGSQYWRFEDG) (peptide)
peptide: KTYLFKGSQYWRFEDG
modifications: also: capped by acetylation and immobilised on array, free peptide in migration assays
notes: On the array it was immobilised and capped by acetylation; in the migration assays it was a free peptide; also called Pneg; negative peptide
B3: VN peptide P8 (RVNLRTRRVDTVDPPYPRS) (peptide)
peptide: RVNLRTRRVDTVDPPYPRS
notes: Free synthetic peptide (Mimotopes) in the migration and growth assays; The array carried only its overlapping 16-mers 8A-8D; also called Peptide 8; motif-8 mimic

What was measured:
[1] = biological target: T1, Human receptor grade IGF-II (insulin-like growth factor II) (human, UniProt P01344 25-91); assay: VN-peptide array, ligand overlay, immunoblot/ECL, TotalLab spot intensity
T1 construct: Bought recombinant protein, overlaid in solution on the VN-peptide array
T1 sequence (P01344 25-91 limits assumed): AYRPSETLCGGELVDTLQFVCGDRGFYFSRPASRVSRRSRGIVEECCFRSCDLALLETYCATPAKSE
Description: Methanol or ethanol was used to enhance the rehydration of peptide spots that might be hydrophobic. The peptides spotted onto the membranes were activated by incubating in 3 mL of 70% ethanol for five mins. The membranes were subsequently washed three times, 10 minutes each, in 10 mL TBS (Tris Buffered Saline; 8 g NaCl, 0.2 g KCl and 6.1 g Tris Base into 1000 mL of milliQ water, pH 7) with gentle rocking. Membrane blocking was performed by incubating in 10 mL casein-based membrane blocking buffer (MBS; Sigma-Aldrich) overnight at 4° C. The following day, the membranes were washed twice, 10 minutes each, in 10 mL TBS-T (TBS+0.05% Tween-20; pH 7).
Ligands used to test binding to VN-peptides were IGFBP-3, IGFBP-5 and IGF-II. For ligand binding, four separate solutions of 1 μg/mL ligand in 10 mL MBS buffer were prepared and each membrane was incubated in one of the four ligand solutions overnight at 4° C., with gentle rocking. […] The following day, the membranes were washed three times, 10 minutes each, in 10 mL TBS-T.
The binding of the ligands to peptides within the membrane was detected using immunoblotting. The membranes were incubated overnight at 4° C. with 10 mL primary antibody solution (in MBS buffer) targeting the respective ligands. The antibodies used were anti-IGFBP-3 (1:10,000), anti-IGFBP-5 (1:10,000) and anti-IGF-II (1:5000) to detect IGFBP-3, IGFBP-5 and IGF-II respectively. The following day, the membranes were washed three times, 10 minutes each, in 10 mL TBS-T and incubated with 10 mL HRP-conjugated secondary IgG antibody diluted 1:15,000 in MBS buffer for 1 hour at room temperature. Following a further three washes of 10 minutes each, the peptide spots were visualized using ECL. The membranes were exposed onto x-ray films and developed using a film processor (AGFA CP 1000), or were imaged directly using the ChemiDoc™ XRS system (BioRad).

[2] = biological target: T2, Human receptor grade IGFBP-3 (insulin-like growth factor binding protein 3) (human, UniProt P17936 28-291); assay: VN-peptide array, ligand overlay, immunoblot/ECL
T2 construct: Bought recombinant protein, overlaid in solution on the VN-peptide array
T2 sequence (P17936 28-291 limits assumed): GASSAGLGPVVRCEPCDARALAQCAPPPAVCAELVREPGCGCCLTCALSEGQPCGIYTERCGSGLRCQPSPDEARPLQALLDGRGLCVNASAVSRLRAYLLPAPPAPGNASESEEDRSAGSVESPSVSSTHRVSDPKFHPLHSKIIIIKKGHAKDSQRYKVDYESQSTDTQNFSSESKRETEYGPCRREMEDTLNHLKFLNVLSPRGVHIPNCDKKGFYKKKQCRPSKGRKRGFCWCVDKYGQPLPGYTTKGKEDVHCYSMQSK

[3] = biological target: T3, Human receptor grade IGFBP-5 (insulin-like growth factor binding protein 5) (human, UniProt P24593 21-272); assay: VN-peptide array, ligand overlay, immunoblot/ECL
T3 construct: Bought recombinant protein, overlaid in solution on the VN-peptide array
T3 sequence (P24593 21-272 limits assumed): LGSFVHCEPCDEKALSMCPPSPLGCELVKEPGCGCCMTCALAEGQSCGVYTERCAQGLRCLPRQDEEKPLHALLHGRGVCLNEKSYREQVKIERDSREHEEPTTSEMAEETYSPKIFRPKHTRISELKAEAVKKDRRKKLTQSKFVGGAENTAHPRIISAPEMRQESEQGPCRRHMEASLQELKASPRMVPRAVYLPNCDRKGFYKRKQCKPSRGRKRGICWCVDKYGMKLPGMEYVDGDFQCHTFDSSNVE

[4] = biological target: T1, Human receptor grade IGF-II …; assay: VN-peptide array, ligand overlay, immunoblot/ECL
[5] = biological target: T2, Human receptor grade IGFBP-3 …; assay: rests on the VN-peptide array
[6] = biological target: T1, Human receptor grade IGF-II …; assay: rests on the VN-peptide array

Row | Binder | Intensity (against -ve control) [1] | binding result [2] | binding result [3] | binding result [4] | binding result [5] | binding result [6]
1 | B1 | 12 fold over negative controls | binds | binds | – | – | –
2 | B2 | – | no binding (tested: 1 µg/mL ligand) | no binding (tested: 1 µg/mL ligand) | no binding (tested: 1 µg/mL ligand) | – | –
3 | B3 | – | – | – | – | binds | binds
